# Source: patent US20170368136
# Tests used:
# CN19 S12A = tested on: T1, CN19 S12A
# T1 sequence: KRPPKLGQIGRAKRVVIED
# CN19 = tested on: T2, CN19
# T2 sequence: KRPPKLGQIGRSKRVVIED
# Chain of CaMKII (chain): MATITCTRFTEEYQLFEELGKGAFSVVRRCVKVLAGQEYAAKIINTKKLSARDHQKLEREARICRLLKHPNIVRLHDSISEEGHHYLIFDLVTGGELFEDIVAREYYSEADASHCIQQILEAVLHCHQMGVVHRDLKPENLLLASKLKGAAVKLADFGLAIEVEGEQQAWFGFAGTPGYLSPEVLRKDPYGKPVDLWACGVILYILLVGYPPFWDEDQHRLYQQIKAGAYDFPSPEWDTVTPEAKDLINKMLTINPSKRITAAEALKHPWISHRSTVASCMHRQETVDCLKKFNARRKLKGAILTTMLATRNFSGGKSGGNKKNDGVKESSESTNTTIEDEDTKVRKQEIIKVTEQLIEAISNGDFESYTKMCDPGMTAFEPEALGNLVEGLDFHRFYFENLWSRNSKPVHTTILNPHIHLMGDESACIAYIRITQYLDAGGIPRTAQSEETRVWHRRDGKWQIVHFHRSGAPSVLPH
Substance,phosphate incorporation by PKC (CN19 S12A),phosphorylation rate by PKC relative to a MARCKS peptide substrate (CN19),AC2 substrate phosphorylation by CaMKII (CN21b),AC2 substrate phosphorylation by CaMKII (CN21c),"MAP2 phosphorylation by CaMKII (Western), 5 µM peptide (CN21c)",CaMKII substrate- and auto-phosphorylation (Western) (CaM-KIIN)
PKC,CN19 but not its S12A mutant was phosphorylated by PKC,with a phosphorylation rate of >50% compared to a peptide derived from a major PKC substrate protein,–,–,–,–
CaMKII,–,–,"The other 21mer peptides, CN21b and CN21c, had minimal or no effect","The other 21mer peptides, CN21b and CN21c, had minimal or no effect",Only CN21c failed to block MAP2 phosphorylation,CaM-KIIN and CN21 block substrate- and T305 but not T286 auto-phosphorylation
